Drawing on paper PMC10806991, “Substrate promiscuity of Dicer toward precursors of the let-7 family and their 3′-end modifications”, this text covers Kd for 18 molecules.

B1: pre-let-7i (7i) (structured_RNA)
RNA: UGAGGUAGUAGUUUGUGCUGUUGGUCGGGUUGUGACAUUGCCCGCUGUGGAGAUAACUGCGCAAGCUACUGCCUUGC
modifications: 5'-monophosphate; 3'-OH
B2: pre-miR-98 (m98) (structured_RNA)
RNA: UGAGGUAGUAAGUUGUAUUGUUGUGGGGUAGGGAUAUUAGGCCCCAAUUAGAAGAUAACUAUACAACUUACUACUUUCC
modifications: 5'-monophosphate; 3'-OH
B3: pre-let-7a-1 (7a1) (structured_RNA)
RNA: UGAGGUAGUAGGUUGUAUAGUUUUAGGGUCACACCCACCACUGGGAGAUAACUAUACAAUCUACUGUCUUUC
modifications: 5'-monophosphate; 3'-OH
B4: pre-let-7g (7g) (structured_RNA)
RNA: UGAGGUAGUAGUUUGUACAGUUUGAGGGUCUAUGAUACCACCCGGUACAGGAGAUAACUGUACAGGCCACUGCCUUGC
modifications: 5'-monophosphate; 3'-OH
B5: pre-let-7d (7d) (structured_RNA)
RNA: AGAGGUAGUAGGUUGCAUAGUUUUAGGGCAGGGAUUUUGCCCACAAGGAGGUAACUAUACGACCUGCUGCCUUUC
modifications: 5'-monophosphate; 3'-OH
B6: pre-let-7b (7b) (structured_RNA)
RNA: UGAGGUAGUAGGUUGUGUGGUUUCAGGGCAGUGAUGUUGCCCCUCGGAAGAUAACUAUACAACCUACUGCCUUCC
modifications: 5'-monophosphate; 3'-OH
B7: pre-let-7a-3 (7a3) (structured_RNA)
RNA: UGAGGUAGUAGGUUGUAUAGUUUGGGGCUCUGCCCUGCUAUGGGAUAACUAUACAAUCUACUGUCUUUC
modifications: 5'-monophosphate; 3'-OH
B8: pre-let-7f-2 (7f2) (structured_RNA)
RNA: UGAGGUAGUAGAUUGUAUAGUUUUAGGGUCAUACCCCAUCUUGGAGAUAACUAUACAGUCUACUGUCUUUC
modifications: 5'-monophosphate; 3'-OH
B9: pre-let-7a-2 (7a2) (structured_RNA)
RNA: UGAGGUAGUAGGUUGUAUAGUUUAGAAUUACAUCAAGGGAGAUAACUGUACAGCCUCCUAGCUUUCC
modifications: 5'-monophosphate; 3'-OH
B10: pre-let-7c (7c) (structured_RNA)
RNA: B9 RNA with A19G, A27G, U33C, A35C, A36U, A42U, G53A, C57U
modifications: 5'-monophosphate; 3'-OH
B11: pre-let-7e (7e) (structured_RNA)
RNA: UGAGGUAGGAGGUUGUAUAGUUGAGGAGGACACCCAAGGAGAUCACUAUACGGCCUCCUAGCUUUCC
modifications: 5'-monophosphate; 3'-OH
B12: pre-miR-202 (m202) (structured_RNA)
RNA: UUCCUAUGCAUAUACUUCUUUGAGGAUCUGGCCUAAAGAGGUAUAGGGCAUGGGAAAA
modifications: 5'-monophosphate; 3'-OH
B13: pre-let-7a-1 mono-U (structured_RNA)
RNA: UGAGGUAGUAGGUUGUAUAGUUUUAGGGUCACACCCACCACUGGGAGAUAACUAUACAAUCUACUGUCUUUCU
modifications: 5'-monophosphate; 3'-OH; one extra 3' U
B14: pre-let-7b mono-U (structured_RNA)
RNA: UGAGGUAGUAGGUUGUGUGGUUUCAGGGCAGUGAUGUUGCCCCUCGGAAGAUAACUAUACAACCUACUGCCUUCCU
modifications: 5'-monophosphate; 3'-OH; one extra 3' U
B15: pre-let-7g mono-U (structured_RNA)
RNA: UGAGGUAGUAGUUUGUACAGUUUGAGGGUCUAUGAUACCACCCGGUACAGGAGAUAACUGUACAGGCCACUGCCUUGCU
modifications: 5'-monophosphate; 3'-OH; one extra 3' U
B16: pre-let-7d mono-U (structured_RNA)
RNA: AGAGGUAGUAGGUUGCAUAGUUUUAGGGCAGGGAUUUUGCCCACAAGGAGGUAACUAUACGACCUGCUGCCUUUCU
modifications: 5'-monophosphate; 3'-OH; one extra 3' U
B17: pre-miR-98 mono-U (structured_RNA)
RNA: UGAGGUAGUAAGUUGUAUUGUUGUGGGGUAGGGAUAUUAGGCCCCAAUUAGAAGAUAACUAUACAACUUACUACUUUCCU
modifications: 5'-monophosphate; 3'-OH; one extra 3' U

Numbering of substitutions follows the chain as printed.

The target of the first data set is T1, ciDicer (catalytically inactive human Dicer) (Homo sapiens, UniProt Q9UPY3 1-1922, D1320A;D1709A). Nature of the data set: EMSA; EMSA: 50 mM Tris pH 7.6, 50 mM NaCl, 10% glycerol, 0.05% NP-40, 2 mM DTT, 4 °C, 30 min, 2 pM 32P-RNA; 4-15% native PAGE in Tris-glycine; RNA heated 95 °C and snap-cooled; no Mg2+ added to DB buffer. Particulars: protein: recombinant; label: 5'-32P; hairpin, 1-nt 3' overhang (Group II). On the technique in general: Mobility shift assays separate free from complexed probe on a gel.
T1 sequence (Q9UPY3 whole entry D1320A/D1709A): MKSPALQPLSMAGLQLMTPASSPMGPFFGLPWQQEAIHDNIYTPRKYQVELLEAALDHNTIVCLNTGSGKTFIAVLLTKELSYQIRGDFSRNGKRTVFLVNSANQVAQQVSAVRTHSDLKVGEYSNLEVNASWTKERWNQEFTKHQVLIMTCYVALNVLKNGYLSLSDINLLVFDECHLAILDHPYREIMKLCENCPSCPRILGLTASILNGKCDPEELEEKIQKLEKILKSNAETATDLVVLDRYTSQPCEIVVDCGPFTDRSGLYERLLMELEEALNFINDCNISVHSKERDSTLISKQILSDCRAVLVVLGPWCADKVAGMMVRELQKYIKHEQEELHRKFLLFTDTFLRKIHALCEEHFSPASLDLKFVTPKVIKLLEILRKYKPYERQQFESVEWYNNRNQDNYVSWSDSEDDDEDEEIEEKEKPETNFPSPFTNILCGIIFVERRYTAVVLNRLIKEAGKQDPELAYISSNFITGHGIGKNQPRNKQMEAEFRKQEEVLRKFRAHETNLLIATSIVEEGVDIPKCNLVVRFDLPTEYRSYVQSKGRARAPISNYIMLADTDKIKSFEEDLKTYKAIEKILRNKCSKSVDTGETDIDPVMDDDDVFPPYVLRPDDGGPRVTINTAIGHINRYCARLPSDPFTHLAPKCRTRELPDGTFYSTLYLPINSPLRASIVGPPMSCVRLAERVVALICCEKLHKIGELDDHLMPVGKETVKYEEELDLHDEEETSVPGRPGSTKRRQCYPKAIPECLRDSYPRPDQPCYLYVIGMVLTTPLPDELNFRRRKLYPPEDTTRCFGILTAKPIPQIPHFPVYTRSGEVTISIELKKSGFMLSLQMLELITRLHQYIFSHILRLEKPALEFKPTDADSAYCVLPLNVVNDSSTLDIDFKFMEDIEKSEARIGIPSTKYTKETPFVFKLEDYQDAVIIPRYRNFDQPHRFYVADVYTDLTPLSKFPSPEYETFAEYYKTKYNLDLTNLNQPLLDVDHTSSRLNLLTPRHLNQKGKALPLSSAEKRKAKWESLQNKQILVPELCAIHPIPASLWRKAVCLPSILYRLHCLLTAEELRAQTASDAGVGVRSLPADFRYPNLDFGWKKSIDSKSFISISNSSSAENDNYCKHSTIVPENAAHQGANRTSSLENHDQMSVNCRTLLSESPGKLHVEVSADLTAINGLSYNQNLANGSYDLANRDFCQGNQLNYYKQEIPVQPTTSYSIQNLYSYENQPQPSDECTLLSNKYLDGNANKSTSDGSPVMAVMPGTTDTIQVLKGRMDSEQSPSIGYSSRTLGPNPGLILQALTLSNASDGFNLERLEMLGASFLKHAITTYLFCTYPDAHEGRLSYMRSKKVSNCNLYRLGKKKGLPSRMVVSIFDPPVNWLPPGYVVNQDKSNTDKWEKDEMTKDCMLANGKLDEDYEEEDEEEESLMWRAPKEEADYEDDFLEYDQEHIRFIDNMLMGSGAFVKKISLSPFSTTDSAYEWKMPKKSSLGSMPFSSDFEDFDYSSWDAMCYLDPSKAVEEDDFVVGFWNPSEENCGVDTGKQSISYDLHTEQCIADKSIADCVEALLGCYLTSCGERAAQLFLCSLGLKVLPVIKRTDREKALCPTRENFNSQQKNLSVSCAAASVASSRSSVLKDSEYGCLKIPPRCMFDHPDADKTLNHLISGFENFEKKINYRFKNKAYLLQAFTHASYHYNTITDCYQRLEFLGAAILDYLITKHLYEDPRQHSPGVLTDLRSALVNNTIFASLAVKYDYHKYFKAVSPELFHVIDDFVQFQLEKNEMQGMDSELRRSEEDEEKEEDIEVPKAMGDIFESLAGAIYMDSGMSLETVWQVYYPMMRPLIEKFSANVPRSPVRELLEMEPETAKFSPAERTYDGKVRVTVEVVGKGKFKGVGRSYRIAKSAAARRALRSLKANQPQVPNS
Usually Kd stands for the concentration at which binding is half-saturated. Take B1: the Kd amounted to 0.017 ± 0.005 µM. On to B2, for which the dissociation constant (Kd) was determined as 0.012 ± 0.007 µM.

B3: the dissociation constant Kd amounted to 0.014 ± 0.003 µM.

With B4, the dissociation constant (Kd) is 0.012 ± 0.002 µM. The same measure, in the same setting: for B5 the value was 0.016 ± 0.003 µM. Still for that read-out and setting: for B6 the value was 0.013 ± 0.001 µM. The same measure, in the same setting: for B7 the value was 0.016 ± 0.005 µM; for B8, 0.017 ± 0.004 µM.

The data set is the same for the next values; noted with them: protein: recombinant; label: 5'-32P; hairpin, 2-nt 3' overhang (Group I).
With B9, the Kd came out at 0.012 ± 0.005 µM. Consider B10, for which the Kd turned out to be 0.013 ± 0.004 µM. With B11, the dissociation constant Kd is 0.012 ± 0.002 µM.

The data set is the same for the next values; noted with them: protein: recombinant; label: 5'-32P; hairpin, 14-nt apical loop, 2-nt 3' overhang (Group I).
B12: the equilibrium dissociation constant (Kd) was found to be 0.007 ± 0.002 µM.

The next data set deals with ciDicer (catalytically inactive human Dicer) D1320A;D1709A (Homo sapiens) (UniProt Q9UPY3). Nature of the data set: EMSA. Particulars: 5'-monophosphate; 3'-OH; EMSA: 50 mM Tris pH 7.6, 50 mM NaCl, 10% glycerol, 0.05% NP-40, 2 mM DTT, 4 °C, 30 min, 2 pM 32P-RNA; 4-15% native PAGE in …; RNA heated 95 °C and sn.
Chain of ciDicer (catalytically inactive human Dicer) D1320A;D1709A (Homo sapiens) (Q9UPY3 whole entry D1320A/D1709A): as above
For pre-let-7f-1 (7f1), the dissociation constant Kd turned out to be 0.01 µM.

A further data set addresses T1, ciDicer (catalytically inactive human …). Nature of the data set: EMSA; range over five mono-U RNAs; individual value only in figure; EMSA: 50 mM Tris pH 7.6, 50 mM NaCl, 10% glycerol, 0.05% NP-40, 2 mM DTT, 4 °C, 30 min, 2 pM 32P-RNA; 4-15% native PAGE in Tris-glycine; RNA heated 95 °C and snap-cooled; no Mg2+ added to DB buffer. Particulars: protein: recombinant; label: 5'-32P; hairpin, 2-nt 3' overhang.
For the molecule B13, the Kd is ~0.019 µM.

For the molecule B14, the dissociation constant (Kd) is ~0.019 µM. The same measure, in the same setting: for B15 the value was ~0.019 µM; for B16, ~0.019 µM. On the same count and under the same terms, under B17 stands ~0.019 µM.
